Laboratory results: US20230151085A1 (TRINOMAB BIOTECH, published 2023)

B1: human anti-NGF antibody TRN1027 (antibody, V domains shown)
VH: QLQLQESGSGLVRPSQTLSLTCAVSGDSMNSGGYSWSWIRQPPGKGLEWIGYIYYSGSTHYNPSLESRVTLSLHRSKNQFFLQLSSVTAADTAVYYCARTLWFGEFEGFDPWGQGILVTVSS
VL: QSALTQPPSASGSPGQSVTISCTGTSSDVGGYNFVSWYQHHPGKAPKLLLYEVSKRPSGVPDRFSGSKSGNTASLTVSGLQAEDEADYFCSSFAGSNNFVFFGGGTKLTVL
B2: anti-NGF antibody Tanezumab (CAS No. 880266-57-9, published in CN 102746399 B, also known as E3) (antibody, V domains shown)
VH: QVQLQESGPGLVKPSETLSLTCTVSGFSLIGYDLNWIRQPPGKGLEWIGIIWGDGTTDYNSAVKSRVTISKDTSKNQFSLKLSSVTAADTAVYYCARGGYWYATSYYFDYWGQGTLVTVSS
VL: DIQMTQSPSSLSASVGDRVTITCRASQSISNNLNWYQQKPGKAPKLLIYYTSRFHSGVPSRFSGSGSGTDFTFTISSLQPEDIATYYCQQEHTLPYTFGQGTKLEIKR

Experiments:
[1] = molecular target: T1, human nerve growth factor (hNGF) (human, UniProt P01138 122-241); test: cell-based or functional assay
[2] = molecular target: T2, human brain-derived neurotrophic factor (hBDNF) (human, UniProt P23560 129-247); test: ELISA, neurotrophin coated on plate, goat anti-human IgG-HRP detection
T2 construct: Bought protein (Absin)
T2 sequence (looked up): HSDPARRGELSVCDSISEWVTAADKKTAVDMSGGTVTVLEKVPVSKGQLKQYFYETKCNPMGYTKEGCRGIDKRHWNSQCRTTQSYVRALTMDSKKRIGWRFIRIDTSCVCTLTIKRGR
Protocol: (§1) The present invention determines the cross-reactivity of antibody TRN1027 to other neurotrophins by ELISA. HBDNF, hNT-3 and hNT-4 (Absin) were used as antigens to coat the 96-well plate at […] overnight at 4° C., respectively. Then the plate was blocked with the blocking solution for 2 hours at ambient temperature. The plate was added with antibody TRN1027 with decreasing concentrations (ranging from 10 ug/ml-0 ug/ml) at 100 ul/well and incubated at 37° C. for 1 h. Antibody TRN1027 was detected by TMB with goat-anti-human IgG-HRP (1: 10000) and the substrate developer. OD values were measured at dual wavelengths of 450-630 nm.

[3] = molecular target: T3, human neurotrophin-3 (hNT-3) (human, UniProt P20783 139-257); test: as above
T3 construct: Bought protein (Absin)
T3 sequence (looked up): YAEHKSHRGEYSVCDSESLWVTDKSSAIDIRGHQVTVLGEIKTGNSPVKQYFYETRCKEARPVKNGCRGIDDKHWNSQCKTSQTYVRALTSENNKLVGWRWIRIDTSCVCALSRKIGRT
Protocol: as §1

[4] = molecular target: T4, human neurotrophin-4 (hNT-4) (human, UniProt P34130 81-210); test: as above
T4 construct: Bought protein (Absin)
T4 sequence (looked up): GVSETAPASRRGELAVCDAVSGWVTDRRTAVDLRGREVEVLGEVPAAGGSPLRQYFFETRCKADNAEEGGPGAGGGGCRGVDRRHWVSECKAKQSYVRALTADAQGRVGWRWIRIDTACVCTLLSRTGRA
Protocol: as §1

[5] = molecular target: T1, human nerve growth factor (hNGF); test: ELISA, hNGF coated at 2 ug/mL, antibody titrated from 10 ug/mL, goat anti-human IgG-HRP
Protocol: Antibody TRN1027 was tested for binding activity to hNGF by the ELISA assay. Specifically, 2 μg/mL of hNGF as an antigen was diluted and coated with carbonate buffer at pH 9.6 in a 96-well plate overnight at 4° C.; the plate was blocked by the blocking solution at 37° C. for 2 h. The antibody TRN1027 was serial diluted with the blocking solution, starting at 10 μg/mL, 3-fold dilution for 12 gradients; each gradient of antibody TRN1027 was then added to a 96-well plate and incubated for 1 h at 37° C. The plate was washed with the PBST buffer, added with 100 μ/well LHRP labeled goat anti-human IgG (1: 10000), and incubate at 37° C. for 1 h. The plate was washed with the PBST buffer, added with 100 μL/well TMB developing solution away from light, and placed for 5 min at 37° C. H₂SO₄ was added to stop the reaction. The detection was conducted at 450 nm wavelength. The results were calculated and analyzed.

[6] = molecular target: T1, human nerve growth factor (hNGF); test: SPR (BIACORE3000), antibody captured by anti-human IgG (Fc) on CM5 chip, hNGF as analyte
Description: The binding force between an antibody and an antigenic determinant, called antibody affinity, reflects the ability of the antibody molecule to bind to the antigenic determinant. In this example, the antigen binding affinity of antibody TRN1027 was detected using surface plasmon resonance analysis (BIACORE3000). Anti-human IgG (Fc) antibody was immobilized on the surface of CM5 sensor chip (GE) by amino-coupling method. The anti-NGF antibody was captured as a ligand, the capture level reached about 400 RU. Different concentrations of hNGF protein were passed through the detection channel as the analyte streams. The binding of antigen to antibody and dissociation of the bound complex was monitored in real-time. Kinetic analysis (calculation of dissociation constants (KD)) was performed with the Biacore X100 Evaluation Software (2.0.1).

T1 sequence (P01138 122-241 limits assumed): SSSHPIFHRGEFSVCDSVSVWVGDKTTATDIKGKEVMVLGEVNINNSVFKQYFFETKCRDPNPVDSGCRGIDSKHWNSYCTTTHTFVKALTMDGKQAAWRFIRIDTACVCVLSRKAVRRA

| Binder | EC50 of inhibition of NGF-induced proliferation of TF-1 cells (MTS) [1] [ng/mL] | EC50 of neutralisation of NGF on PC-12 cells (Celltiter-Glo cell viability) [1] [ng/mL] | binding result [2] | binding result [3] | binding result [4] | EC50 [5] [ng/mL] | Kd [6] [nM] |
| --- | --- | --- | --- | --- | --- | --- | --- |
| B1 | 3.01 | 8.83 | no binding (tested: 10 ug/ml-0 ug/ml) | no binding (tested: 10 ug/ml-0 ug/ml) | no binding (tested: 10 ug/ml-0 ug/ml) | 1.07 | 0.0168 |
| B2 | 14.3 | 32.2 |  |  |  | 2.96 |  |
